Here are results for four compounds from publication PMC10384113, “Structural and Functional Characterization of Drosophila melanogaster α-Amylase” (Molecules, 2023).

Assay [1] deals with Drosophila melanogaster α-amylase (Drosophila melanogaster) (UniProt P08144).
In assay [2] the target is T1, DMA (Drosophila melanogaster α-amylase) (Drosophila melanogaster, UniProt P08144).
T1 construct: gene Amy-p; mature enzyme of 476 residues in crystal; recombinant, amy-p in pET22b, E. coli BL21 (kinetics, crystals); glycogen-purified; no tag mentioned
In words: residual activity on starch after inhibitor preincubation. In kind it is biochemical. As to conditions: native DMA, Pichia-produced; inhibitor 1-50 µM, 20 mM HEPES pH 7.5, 20 mM NaCl, 1 mM CaCl2, 25 °C.

Chain of Drosophila melanogaster α-amylase (Drosophila melanogaster) (P08144 other isoform, or with tags, fused parts or gaps): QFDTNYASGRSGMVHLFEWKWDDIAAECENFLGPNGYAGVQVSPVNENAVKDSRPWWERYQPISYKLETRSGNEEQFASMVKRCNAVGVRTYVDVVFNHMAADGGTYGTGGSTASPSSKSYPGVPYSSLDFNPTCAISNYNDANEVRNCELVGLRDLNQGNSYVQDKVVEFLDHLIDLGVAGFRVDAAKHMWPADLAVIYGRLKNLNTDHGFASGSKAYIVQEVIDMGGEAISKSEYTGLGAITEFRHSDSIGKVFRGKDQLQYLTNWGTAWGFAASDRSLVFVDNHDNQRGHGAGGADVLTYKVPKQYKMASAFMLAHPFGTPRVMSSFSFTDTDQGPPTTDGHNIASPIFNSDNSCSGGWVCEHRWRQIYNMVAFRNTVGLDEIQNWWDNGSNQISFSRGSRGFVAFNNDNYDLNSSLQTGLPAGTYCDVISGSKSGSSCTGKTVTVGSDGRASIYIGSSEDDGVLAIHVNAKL
T1 sequence (P08144 with tags, fused parts or gaps): as the sequence (P08144 other isoform, or with tags, fused parts or gaps) above

In turn, “α-AI, α-amylase inhibitor from seeds of the common bean Phaseolus vulgaris (natural protein)” showed a residual α-amylase activity of DMA after 20 min incubation with the inhibitor (1 to 50 µM) at 25 °C, pH 7.5; value at the highest concentration (50 μM) of α-AI in assay [1] of 38%.

With “WI-1 (tetrameric form), wheat α-amylase inhibitor from Triticum aestivum seeds (complex)”, in assay [1], the residual α-amylase activity of DMA after 20 min incubation with the inhibitor (1 to 50 µM) at 25 °C, pH 7.5; value at 10 μM WI-1 turned out to be 6%.

In assay [1], “WI-3 (monomeric form), wheat α-amylase inhibitor from Triticum aestivum seeds (natural protein)” showed a residual α-amylase activity of DMA after 20 min incubation with the inhibitor (1 to 50 µM) at 25 °C, pH 7.5; value at 10 μM WI-3 of 0.8%.

In the case of `C[C@H]1O[C@H](O[C@H]2[C@H](O)[C@@H](O)[C@@H](O[C@H]3[C@H](O)[C@@H](O)C(O)O[C@@H]3CO)O[C@@H]2CO)[C@H](O)[C@@H](O)[C@@H]1N[C@H]1C=C(CO)[C@@H](O)[C@H](O)[C@H]1O` (stereo partly shown) [acarbose], the “residual activity (%)” value in assay [2] was “Residual activity of (a) native DMA after treatment with proteinaceous inhibitors and acarbose”.
